# Laboratory results reported in US8431396B2, “Anti-angiogenic peptides” (The Cleveland Clinic Foundation, priority 2003, dated 2013).
# B1: TIMP3: tissue inhibitor of metalloproteinases-3; recombinant human form expressed in NSO myeloma cells, or wild-type expressed in transfected cells (protein, listed as Homo sapiens)
# chain: MTPWLGLIVLLGSWSLGDWGAEACTCSPSHPQDAFCNSDIVIRAKVVGKKLVKEGPFGTLVYTIKQMKMYRGFTKMPHVQYIHTEASESLCGLKLEVNKYQYLLTGRVYDGKMYTGLCNFVERWDQLTLSQRKGLNYRYHLGCNCKIKSCYYLPCFVTSKNECLWTDMLSNFGYPGYQSKHYACIRQKGGYCSWYRGWAPPDKSIINATDP
# Legend:
# VEGF = biological target: T1, VEGF (Homo sapiens, UniProt P15692); experiment: Solid-phase direct binding of [125I]VEGF to wells coated with TIMPs
# T1 construct: purchased Genentech (gift, not bought)
# T1 sequence (P15692 27-191 isoform P15692-4): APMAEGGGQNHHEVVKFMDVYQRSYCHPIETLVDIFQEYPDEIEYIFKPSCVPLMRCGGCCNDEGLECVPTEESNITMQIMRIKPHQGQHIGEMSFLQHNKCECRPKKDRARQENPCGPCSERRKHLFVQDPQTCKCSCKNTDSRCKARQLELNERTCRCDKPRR
# PDGFR-β = biological target: T2, PDGFR-β (Homo sapiens, UniProt P09619); experiment: [125I]PDGF-BB binding to PAE-PDGFR-β cells; settings: recombinant TIMP3 or overexpression
# T2 construct: expressed in transfected cells; host or cells: porcine aortic endothelial (PAE) cells
# Description: Radioligand binding is expressed as percent binding and is the mean±s.e.m. of triplicate samples. […] All values are expressed as mean±s.e.m. of triplicate samples. […] Binding is expressed as mean±s.e.m.
# Data were analyzed by Scatchard plot analyses.
# PAEKDR cells [1] = experiment: Tube formation assay in type 1 collagen gels; type: cell-based, porcine; settings: 50 ng/ml VEGF; three-dimensional collagen gels
# Description: Type 1 collagen was mixed with 10×DMEM and 0.1 M NaOH (8:1:1), adjusted to a solution containing 10 μg/ml growth factor reduced matrigel matrix (BD, Biosciences), and then distributed in 48-well dishes. […] After 4 h of incubation at 37° C., a second layer of collagen was added, and cultures were kept under the same conditions as above described. Tube formation was examined using a phase-contrast microscopy at the indicated time points.
# PAE-FGFR1 cells = experiment: Endothelial cell proliferation in response to bFGF; type: cell-based, porcine; settings: recombinant TIMP3 (1 and 5 μg/ml) or overexpression
# [2] = test system: chick embryo chorioallantoic membrane (CAM); experiment: Chick embryo chorioallantoic membrane (CAM) assay of VEGF-mediated angiogenesis; type: in vivo, chicken; settings: VEGF165 100 ng
# Text: The CAM assay was done as described with slight modifications. Fertilized 3-day-old white Leghorn eggs (Sunnyside, Beaver Dam, Wis.) were cracked and embryos with the yolk intact were placed in glass-bottomed Petri dishes. […] Angiogenesis was reported as the angiogenic index (mean number of tertiary branchpoints from experimental conditions minus the mean number of branchpoints from buffer controls with no angiogenic stimulator).
# endothelial cells = experiment: DNA synthesis ([3H]thymidine uptake) of endothelial cells in response to VEGF165; type: cell-based; settings: TIMP3 at 1 μg/ml and 10 μg/ml
# Description: (§1) (A) Proliferative response of PAE-KDR cells to VEGF165 (5 ng/ml; left) and VEGF121 (30 ng/ml; right). […] (C) DNA synthesis of endothelial cells in response to VEGF165. […] [3H]thymidine incorporation was measured during the last 5 h of incubation. (D) Analysis of endothelial cell expressing TIMP3. […] Expression of TIMP3 protein was determined by immunoblotting with antibody against TIMP3 (top left). MMP-inhibitory activity was determined by reverse zymography (top right). Corresponding densito-metric quantitation is expressed as arbitrary optical density (OD) units±s.d. (C) DNA synthesis in adenovirus-infected cells in response to VEGF. […] In all proliferation experiments, total number of cells was counted at 48 h. Proliferating cell number is expressed as means±s.e.m. of quadruplicate samples. DNA synthesis data represent the means±s.e.m. of triplicate samples; similar results were obtained in at least 2 different experiments. *, P<0.01.
# (§2) A modified Boyden chamber assay for migration and proliferation assays were carried out as described.
# PAEKDR cells [3] = experiment: VEGF-stimulated actin reorganization / membrane ruffles; type: cell-based, porcine; settings: 50 ng/ml VEGF for 15 min
# Description: For immunostaining, subconfluent cells cultured on Falcon cultureslides (BD, Biosciences) were used. For surface KDR detection, cells were fixed in 1% paraformaldehyde for 10 min at 4° C. Following blocking with 1% BSA cells were incubated with anti-extracellular VEGFR-2 monoclonal antibody for 1 h at room temperature. Surface KDR was detected with biotinylated anti-mouse […] (1:1000) and Texas Red avidin D (1:1500) using standard procedures. […] The cells were fixed with 3.7% paraformaldehyde in PBS for 30 min at 4° C. and permeabilized with 0.2 Triton X-100 for 20 min at room temperature. Following rinsing with PBS the cells were incubated with fluorescein isothiocyanate (FITC)-labeled phalloidin in PBS (0.66 μg/ml, Sigma) for 20 min at room temperature washed with PBS and analyzed by fluorescence microscopy.
# PAE-KDR cells = experiment: Endothelial cell proliferation in response to VEGF165 and VEGF121; type: cell-based, porcine
# Description: as §1, §2
# soluble VEGFR-2 = experiment: Soluble VEGFR-2 (sKDR) in conditioned medium (ELISA); type: cell-based, human; settings: WT-TIMP3 cells; data not shown
# KDR = biological target: T3, KDR (Homo sapiens, UniProt P35968); experiment: VEGF165-induced KDR phosphorylation (immunoprecipitation/immunoblot); type: cell-based; settings: 1 μg/ml; PAE-KDR cells
# T3 construct: To determine whether these receptor isoforms represent full-length VEGFR-2; expressed in transfected cells; host or cells: porcine aortic endothelial (PAE) cells
# Description: PDGF-BB-mediated phosphorylation was examined similarly in PAESPDGFR-β cells (anti-PDGFR-β; top right panel). […] PDGF-BB-mediated phosphorylation of PDGFR-β in PAE-PDGFR-β cells overexpressing TIMP3 (top right). KDR protein or PDGFR-β protein was analyzed by both immunoprecipitation and immunoblotting with antibodies specific for KDR (left) or for PDGFR-β (right; A and B, second panels from top). […] Total protein levels of ERK were determined by immunoblotting with antibodies specific for ERK1/2 (anti-ERK1/2; A and B, bottom).
# Cell fractions, prepared as described earlier, or immunoprecipitates of the lysates with the indicated antibodies, were subjected to SDS-PAGE. Proteins were detected with horseradish peroxidase-conjugated antibodies specific for either rabbit or mouse IgG (Amersham Pharmacia, Piscataway, N.J.) followed by enhanced chemiluminescence.
# PAEKDR cells [4] = experiment: VEGF-stimulated migration (modified Boyden chamber) of transfected PAEKDR cells; type: cell-based, porcine; settings: VEGF 50 ng/ml
# Description: A modified Boyden chamber assay was carried out as described previously 34. Briefly, 8.0 μm pore PVPF polycarbonate membranes were pre-coated with 100 μg/ml collagen type I in 0.2 N acetic acid (Cohesion technologies, INC. Pala Alto, Calif.). […] Chamber was then incubated for 4 hrs at 37° C. in a 5% CO2 humidified incubator. Cells remaining on the top of the filter were removed. Cells on the bottom surface of the filter were fixed, stained and mounted. The number of migrating cells per well was counted microscopically.
# T2 sequence (P09619 33-1106, species assumed): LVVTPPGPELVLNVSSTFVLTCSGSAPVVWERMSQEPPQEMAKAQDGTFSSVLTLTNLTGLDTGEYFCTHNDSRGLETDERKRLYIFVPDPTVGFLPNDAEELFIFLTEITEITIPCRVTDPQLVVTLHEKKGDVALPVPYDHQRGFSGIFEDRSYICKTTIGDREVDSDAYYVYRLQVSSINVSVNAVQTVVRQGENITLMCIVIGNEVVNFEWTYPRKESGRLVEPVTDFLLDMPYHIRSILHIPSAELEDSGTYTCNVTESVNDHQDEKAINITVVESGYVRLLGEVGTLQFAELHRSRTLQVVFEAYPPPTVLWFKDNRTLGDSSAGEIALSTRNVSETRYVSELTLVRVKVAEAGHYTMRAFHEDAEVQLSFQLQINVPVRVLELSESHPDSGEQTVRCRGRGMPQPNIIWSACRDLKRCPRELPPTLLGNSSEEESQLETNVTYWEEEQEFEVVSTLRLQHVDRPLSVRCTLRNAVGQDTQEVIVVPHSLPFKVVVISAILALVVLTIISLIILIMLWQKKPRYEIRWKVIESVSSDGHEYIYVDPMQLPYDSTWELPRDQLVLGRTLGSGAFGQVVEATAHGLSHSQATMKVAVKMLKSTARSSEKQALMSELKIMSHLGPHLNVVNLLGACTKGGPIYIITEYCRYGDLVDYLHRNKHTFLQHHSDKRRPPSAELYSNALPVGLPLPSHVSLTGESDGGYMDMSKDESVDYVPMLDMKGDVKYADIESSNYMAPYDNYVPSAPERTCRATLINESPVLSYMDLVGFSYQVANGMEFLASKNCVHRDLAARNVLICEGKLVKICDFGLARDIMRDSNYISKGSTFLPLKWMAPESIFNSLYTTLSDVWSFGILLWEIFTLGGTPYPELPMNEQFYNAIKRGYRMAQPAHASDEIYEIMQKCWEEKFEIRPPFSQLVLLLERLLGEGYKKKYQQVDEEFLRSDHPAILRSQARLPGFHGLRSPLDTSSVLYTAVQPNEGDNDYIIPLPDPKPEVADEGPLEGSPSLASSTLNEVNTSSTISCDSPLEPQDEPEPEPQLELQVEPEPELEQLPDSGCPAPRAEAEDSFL
# T3 sequence (P35968 20-1356): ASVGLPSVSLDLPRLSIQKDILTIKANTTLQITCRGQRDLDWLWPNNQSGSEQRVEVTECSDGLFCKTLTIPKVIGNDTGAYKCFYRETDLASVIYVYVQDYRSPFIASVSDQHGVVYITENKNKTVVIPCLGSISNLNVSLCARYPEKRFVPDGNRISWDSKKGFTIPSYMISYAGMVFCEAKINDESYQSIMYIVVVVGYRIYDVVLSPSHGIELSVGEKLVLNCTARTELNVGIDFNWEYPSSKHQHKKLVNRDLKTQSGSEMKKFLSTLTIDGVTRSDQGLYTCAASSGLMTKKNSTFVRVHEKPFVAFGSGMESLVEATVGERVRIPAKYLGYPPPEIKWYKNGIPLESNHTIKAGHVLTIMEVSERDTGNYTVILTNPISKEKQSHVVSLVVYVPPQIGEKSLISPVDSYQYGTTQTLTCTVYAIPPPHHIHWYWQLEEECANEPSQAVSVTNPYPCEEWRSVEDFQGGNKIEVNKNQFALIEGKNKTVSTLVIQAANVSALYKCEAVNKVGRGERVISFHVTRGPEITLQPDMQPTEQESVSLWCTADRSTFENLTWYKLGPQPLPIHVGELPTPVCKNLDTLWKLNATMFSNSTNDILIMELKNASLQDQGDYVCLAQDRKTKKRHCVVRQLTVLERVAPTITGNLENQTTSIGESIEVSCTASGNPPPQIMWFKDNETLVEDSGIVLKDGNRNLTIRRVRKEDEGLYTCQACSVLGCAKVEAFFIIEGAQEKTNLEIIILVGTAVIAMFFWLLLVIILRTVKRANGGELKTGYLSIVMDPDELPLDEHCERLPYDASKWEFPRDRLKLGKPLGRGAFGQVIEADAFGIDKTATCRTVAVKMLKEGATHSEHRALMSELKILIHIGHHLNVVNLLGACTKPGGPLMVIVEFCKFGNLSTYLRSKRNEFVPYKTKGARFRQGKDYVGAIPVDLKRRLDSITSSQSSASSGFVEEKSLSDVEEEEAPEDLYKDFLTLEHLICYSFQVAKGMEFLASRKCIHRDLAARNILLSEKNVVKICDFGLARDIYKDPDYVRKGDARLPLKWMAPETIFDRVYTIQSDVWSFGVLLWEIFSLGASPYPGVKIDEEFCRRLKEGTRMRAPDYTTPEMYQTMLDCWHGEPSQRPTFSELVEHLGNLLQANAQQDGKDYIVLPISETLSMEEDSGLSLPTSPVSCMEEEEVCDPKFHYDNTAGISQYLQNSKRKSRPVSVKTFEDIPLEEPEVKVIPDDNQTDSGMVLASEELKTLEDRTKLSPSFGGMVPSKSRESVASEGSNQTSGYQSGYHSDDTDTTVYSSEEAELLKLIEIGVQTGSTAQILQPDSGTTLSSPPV
molecule,measurement,setting,value
B1,direct binding of [125I]VEGF to coated TIMP,VEGF,did not detect direct binding
same,inhibition of PDGF-BB binding to PAE-PDGFR-β cells,PDGFR-β,Neither recombinant TIMP3 nor overexpression of TIMP3 could inhibit binding of PDGF-BB
same,VEGF-stimulated tube formation,PAEKDR cells [1],severely compromised
same,effect on proliferative response to basic fibroblast growth factor (bFGF),PAE-FGFR1 cells,Neither recombinant TIMP3 nor TIMP3 overexpression affected the proliferative response
same,CAMs in which VEGF-induced branching and leakage of blood vessels were inhibited,"[2]; 0.75 μg/disk, n=8",75%
same,CAMs in which VEGF-induced branching and leakage of blood vessels were inhibited,"[2]; […], n=10",90%
same,inhibition of DNA synthesis in response to VEGF165 ([3H]thymidine uptake),endothelial cells,could also inhibit DNA synthesis
same,VEGF-stimulated formation of membrane ruffles,PAEKDR cells [3],did not form membrane ruffles
same,inhibition of proliferative response to VEGF165 and VEGF121,PAE-KDR cells; added exogenously at 0.3-1 μg/ml,inhibited the proliferative response
same,proliferative response to VEGF165 and VEGF121,PAE-KDR cells; over-expression of TIMP3 in endothelial cells,attenuation of the proliferative response
same,"dose required to block the biological responses of in vivo angiogenesis, endothelial cell proliferation and migration","PAE-KDR cells; summary over CAM, proliferation and migration assays",0.3-3 μg/ml
same,"cleaved sVEGFR-2 in the CM, less than mock cells",soluble VEGFR-2,10 fold
same,inhibition of VEGF165-induced phosphorylation of KDR,KDR,strongly inhibited
same,VEGF-stimulated migration of cells expressing TIMP3 variant,PAEKDR cells [4],dramatically reduced basal and VEGF-stimulated migration
